Targets include ERK2 (Homo sapiens, UniProt P28482); SYK (Homo sapiens, UniProt P43405); PDGFRA (Homo sapiens, UniProt P16234); JNK1 (Homo sapiens, UniProt P45983).
Holding throughout (test): Kinase panel residual activity
Holding throughout (format): biochemical
Conditions in all cases: compound at 1 micromolar

The target of a further series is T1, GCK (Homo sapiens, UniProt Q12851).
T1 sequence (Q12851 1-820): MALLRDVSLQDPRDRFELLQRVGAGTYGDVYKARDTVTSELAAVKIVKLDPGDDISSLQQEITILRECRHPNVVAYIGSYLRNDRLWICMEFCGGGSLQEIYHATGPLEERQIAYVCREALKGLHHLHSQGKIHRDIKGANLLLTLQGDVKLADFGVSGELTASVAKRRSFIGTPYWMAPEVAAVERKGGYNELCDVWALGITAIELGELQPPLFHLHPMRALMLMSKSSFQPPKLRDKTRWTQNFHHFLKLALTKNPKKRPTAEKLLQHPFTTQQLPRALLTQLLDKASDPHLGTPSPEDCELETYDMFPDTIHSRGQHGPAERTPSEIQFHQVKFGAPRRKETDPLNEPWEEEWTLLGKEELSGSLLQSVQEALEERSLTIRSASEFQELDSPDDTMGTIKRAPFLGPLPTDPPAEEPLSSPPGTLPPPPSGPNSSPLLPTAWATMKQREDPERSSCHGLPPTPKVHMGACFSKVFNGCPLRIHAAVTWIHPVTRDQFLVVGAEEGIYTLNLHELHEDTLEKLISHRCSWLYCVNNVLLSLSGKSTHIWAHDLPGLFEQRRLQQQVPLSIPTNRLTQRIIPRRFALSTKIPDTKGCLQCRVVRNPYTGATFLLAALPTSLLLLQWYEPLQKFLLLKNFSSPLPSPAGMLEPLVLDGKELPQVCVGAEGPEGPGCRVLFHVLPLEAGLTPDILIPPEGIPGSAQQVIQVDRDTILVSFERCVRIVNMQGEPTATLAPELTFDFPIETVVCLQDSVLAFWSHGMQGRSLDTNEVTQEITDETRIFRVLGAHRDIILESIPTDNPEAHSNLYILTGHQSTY

The target in a further series is T2, BRSK2 (Homo sapiens, UniProt Q8IWQ3).
T2 sequence (Q8IWQ3 1-736): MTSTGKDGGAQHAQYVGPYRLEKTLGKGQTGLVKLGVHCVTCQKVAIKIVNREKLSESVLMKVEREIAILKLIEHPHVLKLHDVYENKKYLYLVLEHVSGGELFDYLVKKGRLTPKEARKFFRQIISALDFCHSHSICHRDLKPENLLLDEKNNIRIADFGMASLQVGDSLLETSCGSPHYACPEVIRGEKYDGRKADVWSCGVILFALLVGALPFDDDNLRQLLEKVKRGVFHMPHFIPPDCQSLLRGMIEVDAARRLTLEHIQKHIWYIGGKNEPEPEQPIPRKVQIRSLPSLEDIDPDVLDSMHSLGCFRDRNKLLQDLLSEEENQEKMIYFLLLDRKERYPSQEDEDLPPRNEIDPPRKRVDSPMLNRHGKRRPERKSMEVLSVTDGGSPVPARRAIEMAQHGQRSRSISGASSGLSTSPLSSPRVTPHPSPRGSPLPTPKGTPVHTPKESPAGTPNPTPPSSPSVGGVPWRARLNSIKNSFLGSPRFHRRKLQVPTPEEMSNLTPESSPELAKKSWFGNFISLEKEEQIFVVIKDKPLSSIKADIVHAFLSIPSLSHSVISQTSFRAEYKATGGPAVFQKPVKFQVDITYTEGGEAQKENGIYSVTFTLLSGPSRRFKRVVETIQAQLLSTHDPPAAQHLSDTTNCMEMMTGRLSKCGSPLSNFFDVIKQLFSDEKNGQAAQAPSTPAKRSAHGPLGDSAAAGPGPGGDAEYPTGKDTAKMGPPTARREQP

Another series deals with T3, IKKb (Homo sapiens, UniProt O14920).
T3 sequence (O14920 1-756): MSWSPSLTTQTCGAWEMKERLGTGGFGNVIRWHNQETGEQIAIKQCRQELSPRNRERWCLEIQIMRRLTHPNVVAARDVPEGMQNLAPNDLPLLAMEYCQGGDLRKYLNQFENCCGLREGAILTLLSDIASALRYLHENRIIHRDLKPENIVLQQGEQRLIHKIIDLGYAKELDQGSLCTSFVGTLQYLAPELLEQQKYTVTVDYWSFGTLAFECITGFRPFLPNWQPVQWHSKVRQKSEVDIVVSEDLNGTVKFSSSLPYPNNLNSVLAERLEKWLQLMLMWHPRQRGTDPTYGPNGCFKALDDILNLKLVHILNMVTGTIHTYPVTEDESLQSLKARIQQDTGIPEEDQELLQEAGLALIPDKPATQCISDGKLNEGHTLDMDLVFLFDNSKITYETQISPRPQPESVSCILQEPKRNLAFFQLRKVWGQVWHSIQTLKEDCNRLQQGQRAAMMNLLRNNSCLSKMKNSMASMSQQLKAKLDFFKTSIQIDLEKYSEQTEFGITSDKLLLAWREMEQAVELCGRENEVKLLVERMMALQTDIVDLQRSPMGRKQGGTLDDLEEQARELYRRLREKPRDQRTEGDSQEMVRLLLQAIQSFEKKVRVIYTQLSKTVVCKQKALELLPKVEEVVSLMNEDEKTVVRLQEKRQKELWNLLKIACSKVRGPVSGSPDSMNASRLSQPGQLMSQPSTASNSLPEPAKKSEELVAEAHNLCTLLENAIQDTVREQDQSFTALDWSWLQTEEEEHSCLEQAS

The values that follow come from patent US9176064B2, “Bisubstrate fluorescent probes for protein kinase CK2” (University of Tartu, priority 2012, dated 2015).

Where a SMILES comes first, the peptide text is derived from it. [ ]: non-standard residue; d: D form. The star is where a group is joined. X1 = O=C(CCCCCCCn1cnc2c(Br)c(Br)c(Br)c(Br)c21)*

Sequence of ERK2 (P28482 whole entry, species assumed): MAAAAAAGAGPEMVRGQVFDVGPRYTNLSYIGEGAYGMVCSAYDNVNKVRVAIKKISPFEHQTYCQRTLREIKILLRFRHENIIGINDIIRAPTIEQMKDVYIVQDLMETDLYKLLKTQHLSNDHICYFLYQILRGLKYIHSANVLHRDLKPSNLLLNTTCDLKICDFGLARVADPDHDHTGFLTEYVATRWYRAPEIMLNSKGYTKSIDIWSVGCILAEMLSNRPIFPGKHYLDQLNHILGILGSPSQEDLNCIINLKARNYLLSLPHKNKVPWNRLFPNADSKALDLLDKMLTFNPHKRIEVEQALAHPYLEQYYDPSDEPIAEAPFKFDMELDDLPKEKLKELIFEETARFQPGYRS
Sequence of JNK1 (P45983 whole entry, species assumed): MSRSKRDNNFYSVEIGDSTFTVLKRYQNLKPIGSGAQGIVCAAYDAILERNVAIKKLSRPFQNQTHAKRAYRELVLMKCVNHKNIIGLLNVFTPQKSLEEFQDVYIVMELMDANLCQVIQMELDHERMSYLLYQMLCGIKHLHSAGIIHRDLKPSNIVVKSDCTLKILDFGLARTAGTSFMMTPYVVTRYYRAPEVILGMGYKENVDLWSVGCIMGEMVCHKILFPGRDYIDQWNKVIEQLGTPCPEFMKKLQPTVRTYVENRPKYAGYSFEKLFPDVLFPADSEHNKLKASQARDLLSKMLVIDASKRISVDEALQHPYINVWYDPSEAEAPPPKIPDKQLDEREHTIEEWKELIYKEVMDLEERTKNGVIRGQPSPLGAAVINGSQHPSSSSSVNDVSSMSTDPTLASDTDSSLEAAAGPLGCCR
Sequence of PDGFRA (P16234 24-1089, species assumed): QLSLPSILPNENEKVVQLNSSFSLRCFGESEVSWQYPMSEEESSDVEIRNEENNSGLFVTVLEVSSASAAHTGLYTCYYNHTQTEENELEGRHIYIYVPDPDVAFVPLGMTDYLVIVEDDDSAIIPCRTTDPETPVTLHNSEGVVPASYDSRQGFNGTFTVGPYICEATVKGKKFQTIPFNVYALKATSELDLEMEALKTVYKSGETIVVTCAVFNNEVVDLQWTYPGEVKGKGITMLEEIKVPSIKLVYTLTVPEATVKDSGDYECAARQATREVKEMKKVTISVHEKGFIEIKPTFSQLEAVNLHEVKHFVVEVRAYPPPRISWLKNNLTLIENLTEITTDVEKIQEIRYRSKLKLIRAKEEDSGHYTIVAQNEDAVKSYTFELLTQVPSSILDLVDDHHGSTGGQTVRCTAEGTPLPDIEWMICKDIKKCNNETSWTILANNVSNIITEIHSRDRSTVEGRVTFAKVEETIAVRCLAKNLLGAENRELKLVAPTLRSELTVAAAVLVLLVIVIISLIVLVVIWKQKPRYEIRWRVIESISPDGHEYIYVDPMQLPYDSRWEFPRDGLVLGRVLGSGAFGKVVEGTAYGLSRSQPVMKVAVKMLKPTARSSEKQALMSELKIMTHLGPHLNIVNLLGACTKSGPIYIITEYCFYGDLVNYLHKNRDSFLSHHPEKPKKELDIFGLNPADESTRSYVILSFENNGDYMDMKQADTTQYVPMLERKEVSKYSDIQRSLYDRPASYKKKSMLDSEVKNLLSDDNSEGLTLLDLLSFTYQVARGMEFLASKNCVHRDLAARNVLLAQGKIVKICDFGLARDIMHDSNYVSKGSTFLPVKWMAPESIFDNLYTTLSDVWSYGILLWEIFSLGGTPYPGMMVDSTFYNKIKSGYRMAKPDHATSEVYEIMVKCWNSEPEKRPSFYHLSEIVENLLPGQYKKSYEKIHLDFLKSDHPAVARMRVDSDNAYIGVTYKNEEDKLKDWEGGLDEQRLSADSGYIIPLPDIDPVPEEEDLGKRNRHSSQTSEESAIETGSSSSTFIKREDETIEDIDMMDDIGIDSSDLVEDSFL

Broadly, the remaining activity is the signal under treatment as a percentage of the control signal. In the case of `NCCCC[C@H](NC(=O)[C@H](CC(=O)O)NC(=O)[C@H](CC(=O)O)NC(=O)[C@H](CC(=O)O)NC(=O)[C@H](CC(=O)O)NC(=O)[C@H](CC(=O)O)NC(=O)[C@@H](CC(=O)O)NC(=O)CCCCCCCn1cnc2c(Br)c(Br)c(Br)c(Br)c21)C(=O)O` [TBBI-OcA-(D-Asp)-(L-Asp)5-(L-Lys)-OH] (X1-[dD]DDDDDK-OH), the remaining activity at 1 µM was found to be 92% with ERK2; 95% with GCK; 100% in the series with SYK; 75% with BRSK2; 77% with PDGFRA; 103% with JNK1. Also, in the series with IKKb, the remaining activity at 1 µM worked out at 55%.
